T1: Full-length His-tagged MALT1 (human, UniProt Q9UDY8 1-824)
T1 sequence: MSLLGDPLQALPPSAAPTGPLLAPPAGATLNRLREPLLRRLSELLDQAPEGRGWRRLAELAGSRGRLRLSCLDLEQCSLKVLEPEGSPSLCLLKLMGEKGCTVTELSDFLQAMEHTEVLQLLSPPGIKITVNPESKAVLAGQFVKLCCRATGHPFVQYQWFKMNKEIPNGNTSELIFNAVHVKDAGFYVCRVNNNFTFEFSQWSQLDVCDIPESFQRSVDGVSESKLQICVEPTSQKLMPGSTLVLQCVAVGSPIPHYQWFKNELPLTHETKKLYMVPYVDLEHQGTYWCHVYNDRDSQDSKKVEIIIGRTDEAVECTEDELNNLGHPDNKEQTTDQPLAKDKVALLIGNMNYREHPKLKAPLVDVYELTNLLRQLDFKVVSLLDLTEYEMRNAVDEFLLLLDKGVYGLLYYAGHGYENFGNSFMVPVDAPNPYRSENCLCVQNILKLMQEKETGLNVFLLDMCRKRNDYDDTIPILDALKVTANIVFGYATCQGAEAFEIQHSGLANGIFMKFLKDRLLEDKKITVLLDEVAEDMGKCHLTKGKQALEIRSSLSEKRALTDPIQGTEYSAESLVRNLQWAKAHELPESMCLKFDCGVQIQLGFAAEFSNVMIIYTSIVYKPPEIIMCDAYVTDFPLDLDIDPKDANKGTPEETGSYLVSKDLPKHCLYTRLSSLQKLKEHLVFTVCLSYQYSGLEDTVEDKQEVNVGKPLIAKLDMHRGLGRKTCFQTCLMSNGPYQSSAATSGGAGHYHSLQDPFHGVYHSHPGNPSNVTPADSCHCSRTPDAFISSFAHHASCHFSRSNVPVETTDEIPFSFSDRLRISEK


What was measured:
[1] = molecular target: T1, Full-length His-tagged MALT1; assay: negative-stain EM
[2] = molecular target: T1, Full-length His-tagged MALT1; assay: fluorescence quenching polymerisation assay
[3] = molecular target: the molecule itself; assay: SEC

Binder | binding result [1] | also measured
BCL10 wild type, full length, after removal of the MBP tag by 3C protease (natural protein, Alexa488 (C5-maleimide) on cysteine residues in the confocal and quenching assays; not labelled for EM) MEPTAPSLTEEDLTEVKKDALENLRVYLCEKIIAERHFDHLRAKKILSREDTEEISCRTSSRKRAGKLLDYLQENPKGLDTLVESIRREKTQNFLIQKITDEVLKLRNIKLEHLKGLKCSSCEPFPDGATNNLSRSNSDESNFSEKLRASTVMYHPEGESSTTPFFSTNSSLNLPVLEVGRTENTIFSSTTLPRPGDPGAPPLPPDLQLEEEGTCANSSEMFLPLRSRTVSRQ | binds | 
BCL10 R58Q, full length, after removal of the MBP tag by 3C protease (natural protein, Alexa488 (C5-maleimide) on cysteine residues in the confocal and quenching assays; not labelled for EM) MEPTAPSLTEEDLTEVKKDALENLRVYLCEKIIAERHFDHLRAKKILSREDTEEISCQTSSRKRAGKLLDYLQENPKGLDTLVESIRREKTQNFLIQKITDEVLKLRNIKLEHLKGLKCSSCEPFPDGATNNLSRSNSDESNFSEKLRASTVMYHPEGESSTTPFFSTNSSLNLPVLEVGRTENTIFSSTTLPRPGDPGAPPLPPDLQLEEEGTCANSSEMFLPLRSRTVSRQ |  | binding result [2]: binds
BCL10 E140X truncation mutant, after removal of the MBP tag by 3C protease (domain or fragment, Alexa488 (C5-maleimide) on cysteine residues in the confocal and quenching assays; not labelled for EM) MEPTAPSLTEEDLTEVKKDALENLRVYLCEKIIAERHFDHLRAKKILSREDTEEISCRTSSRKRAGKLLDYLQENPKGLDTLVESIRREKTQNFLIQKITDEVLKLRNIKLEHLKGLKCSSCEPFPDGATNNLSRSNSD | binds | 
MBP-fused BCL10 E140X (domain or fragment) MEPTAPSLTEEDLTEVKKDALENLRVYLCEKIIAERHFDHLRAKKILSREDTEEISCRTSSRKRAGKLLDYLQENPKGLDTLVESIRREKTQNFLIQKITDEVLKLRNIKLEHLKGLKCSSCEPFPDGATNNLSRSNSD |  | binding result [3]: binds

— publication PMC9357155 (Cancer Discovery, 2022)
